We go through four molecules from article PMC8196010 (Communications Biology, 2021).

The target of assay [1] is recombinant human PALS1 PDZ (residues 255-336) (Homo sapiens, UniProt Q8N3R9). Description: biochemical. The assay is classed as binding.
Assay [2] has as its target SARS-CoV-1 E protein C-terminal PBM (Severe acute respiratory syndrome coronavirus) (UniProt P59637). The settings on record: cited from earlier work.
Assay [3] deals with SARS-CoV-2 E protein C-terminal PBM (Severe acute respiratory syndrome coronavirus 2) (UniProt P0DTC4). The settings on record: cited from earlier work.
For assay [4], the target named is SARS-CoV-2 E protein PBM (Severe acute respiratory syndrome coronavirus 2). Description: ITC. For orientation: ITC needs no label: the signal is the heat of the interaction.
Assay [5] has as its target SARS-CoV-1 E protein PBM (Severe acute respiratory syndrome coronavirus). Briefly: ITC.

No end group written: not given here.

One may read the Kd as the equilibrium constant for the complex coming apart. Regarding EGVPDLLV [SARS-CoV-2 PBM], the dissociation constant (Kd) in assay [1] stood at 22.8 ± 1.2 µM.
Turning to PALS1 PDZ (from UniProt Q8N3R9), the results for the Kd in assay [2] and in assay [3] were 130 µM and 40 µM, respectively.
As for SRVPDLLV [SARS-CoV-1 PBM], the Kd in assay [1] was determined as 29.6 ± 2.3 µM.

B1: PALS1 255-336, Q8N3R9 (protein)
chain: KIVRIEKARDIPLGATVRNEMDSVIISRIVKGGAAEKSGLLHEGDEVLEINGIEIRGKDVNEVFDLLSDMHGTLTFVLIPSQ
Regarding B1, the Kd in assay [4] was 22.8 µM; in assay [5], 29.6 µM.
